Measured values: paper PMC10602139, “Architecture and rearrangements of a sperm-specific Na^+/H^+ exchanger” (Research Square, 2023)

Target: the molecule itself
Assay: cryo-EM structure; single-particle cryo-EM of purified protein in digitonin micelles; pH 8 or pH 6, NaCl or KCl; WT also with 5 mM cAMP at pH 6; C2 symmetry imposed

B1: sp9C1 R399A mutant, tag cleaved (cryo-EM sample) (natural protein, Strongylocentrotus purpuratus, UniProt A3RL54 30-1325, looked up)
chain: SSGGSGHTPTTQATHADDHDLTTHNGTEEHDDGHDDGHDDLHAHAPKVIVFISGSCLFGAISRSLFKKLPIPYTVVLLILGAILGVVASNVPLVEEHTRDVAHMDPHVLLQIFLPVLIFESAFAMDVHTFMRSFSQVCILALFGLVVASVLTAVLAMNLFNYNWNFSEAMMFGAIMSATDPVAVVALLKDLGASKQLGTIIEGESLLNDGCAIVIFNVFMKMVFFPQLTSTVGQNVLYFLQVAVAGPLWGYAVAKVTVFFLSHIFNDALVEITITLAATYLTYYIGDIWLEVSGVLAVVVLGLIVNAEKTSISPEVEVFLHRFWEMLAYLANTLIFMMVGVVVTQKALVAVDKMDWFYLIILYLAITIIAGMVISLFSPILSRIGYGLTWRNAVIMTWGGLRGAVGLALALVVENLAGNDVIGSKFLFHTAGIVVLTLVINATTIQTLLRILGMSDISIPKRLAMAGAVRRIHEGQNRTLNMLKSDRFLADADWDIATAACEISDPYSALSDDENAPADELTLGERKSVCPGCKAMVPNEPSPREFADMMEEARLRMLKAEKISYWKQFEHGMLAREALRLLVQHAEVAADEKDQFILVDDLKKSWQIKGIYPWLKRKLEDLISEKKIAAIPMPKYKLGKLMYKICHHMAFEVTINIAIVLNIVPIIMEFVVQDKMASVSTMAAPGSTVSSEPSSLQKIEDALRISNYVFFVIYAIEAIVKILGLGRHYIVSHWNKFDAFILVVALVDIIIAETLLKGSITINLSSIKVVKLFRLLRGLRMLRLTKALIPKLILVVNGKINNQLSLGYDVGKGYIIGEEEVGKIIDRMVDNKKILRELKHISETGRLQVVKELGLLQREHPGIAVSVKTRQAIRTILNHSRETIHELQGAGLLDEMEAHKLELTVEIKMKRLMNAPSSIPPPPPENLLKNVSWLAGDMKLIDFIKARASLLHFDYGEVIVREGDESDGLFLIVSGLVKLYGKSAFLDHDNPPVTAGSEENEVFEDYLTVGNVIGEMGVLTKKPRNATVTCETTVQVYFITAEDMNIAIDTFTLYPSLEYRLWRVVAIRIATPLIMEQMAFQGWTQEKVKLHLERGYLVDLAESHFQFNIDATLEDVILINGTAYNAHTREEIRSPCLISRTVHKLTFQYTATEEPRLFVVRNAEYNGPILDGRLDVDSKRSLISITEISSNMCLKHAAELRQKNSKVMLSRKSSGAAAKEEEDCIPNTSDVEQAAGVSPSVPTKTTPKPKSFLPSLGLSMSKERVNGEAVEESPVKTKQGEETPETEEGAAPRVNV
notes: SLC9C1, Strongylocentrotus purpuratus, full length with R399A; made in the background of the parent construct; source: HEK293F, transiently transfected; purified in digitonin (anti-GFP-nanobody resin, PreScission cleavage, gel filtration); not shown: mEGFP, C-terminal, cleaved; Twinstrep, C-terminal, cleaved
B1: binds.
